Data as given in paper PMC10359466, “Identification of a small-molecule inhibitor that selectively blocks DNA-binding by Trypanosoma brucei replication protein A1” (Nature Communications, 2023).
Like-named read-outs stand apart in the source and are kept apart here.

Assays:
[1] = molecular target: ATRIP peptide (Homo sapiens) (UniProt Q8WXE1); settings: cited from earlier work
[2] = molecular target: ATRIP peptide (Homo sapiens) (UniProt Q8WXE1); settings: cited from earlier work; remark: listed apart in the source
[3] = molecular target: T1, TbRPA1 DBD-AB (Trypanosoma brucei) (UniProt Q384B5); experiment: MST; settings: 20 mM Tris pH 7.5, 10 mM NaCl, 10 mM MgCl2, 2 mM DTT, 10% glycerol, 0.1 mg/ml BSA, 15 min, room temperature; EMSA 2 nM probe (gel at 4 C), MST 10 nM probe
T1 sequence: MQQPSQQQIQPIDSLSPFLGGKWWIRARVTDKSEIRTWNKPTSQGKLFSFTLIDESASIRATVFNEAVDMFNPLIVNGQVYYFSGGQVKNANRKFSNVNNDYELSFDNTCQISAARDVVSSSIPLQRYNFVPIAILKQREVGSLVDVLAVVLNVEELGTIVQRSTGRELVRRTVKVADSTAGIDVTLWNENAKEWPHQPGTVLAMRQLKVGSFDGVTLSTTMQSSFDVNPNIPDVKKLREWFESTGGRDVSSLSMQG

[4] = molecular target: TbRPA complex: 6xHis-RPA1;TbRPA2;TbRPA3 (Trypanosoma brucei;Trypanosoma brucei;Trypanosoma brucei) (UniProt Q384B5); experiment: MST; settings: 20 mM Tris pH 7.5, 10 mM NaCl, 10 mM MgCl2, 2 mM DTT, 10% glycerol, 0.1 mg/ml BSA, 15 min, room temperature, EMSA 2 nM probe (gel at 4 C), MST 10 nM probe

Sequence of ATRIP peptide (Homo sapiens) (Q8WXE1 whole entry): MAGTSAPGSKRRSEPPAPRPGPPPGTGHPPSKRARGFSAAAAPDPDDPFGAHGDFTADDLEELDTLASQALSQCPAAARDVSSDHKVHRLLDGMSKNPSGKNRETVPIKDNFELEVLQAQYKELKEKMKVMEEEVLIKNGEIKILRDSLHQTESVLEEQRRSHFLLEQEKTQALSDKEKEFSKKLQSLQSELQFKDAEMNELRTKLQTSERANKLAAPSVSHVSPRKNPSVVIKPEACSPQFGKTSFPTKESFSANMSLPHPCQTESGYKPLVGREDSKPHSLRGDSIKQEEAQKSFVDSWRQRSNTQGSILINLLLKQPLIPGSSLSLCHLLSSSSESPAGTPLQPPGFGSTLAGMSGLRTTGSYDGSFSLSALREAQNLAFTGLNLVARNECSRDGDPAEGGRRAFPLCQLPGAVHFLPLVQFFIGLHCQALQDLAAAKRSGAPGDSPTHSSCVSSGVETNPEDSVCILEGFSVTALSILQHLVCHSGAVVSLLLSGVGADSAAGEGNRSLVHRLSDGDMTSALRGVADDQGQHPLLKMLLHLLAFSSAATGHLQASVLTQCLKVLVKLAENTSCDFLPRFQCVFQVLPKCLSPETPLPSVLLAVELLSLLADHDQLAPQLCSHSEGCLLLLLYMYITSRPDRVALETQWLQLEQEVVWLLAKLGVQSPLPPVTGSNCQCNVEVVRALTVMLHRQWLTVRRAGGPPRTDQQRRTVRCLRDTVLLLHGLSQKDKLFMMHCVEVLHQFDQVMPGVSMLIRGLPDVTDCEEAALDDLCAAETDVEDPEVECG
Sequence of RPA1 DBD-F DBD-F (P27694 1-120): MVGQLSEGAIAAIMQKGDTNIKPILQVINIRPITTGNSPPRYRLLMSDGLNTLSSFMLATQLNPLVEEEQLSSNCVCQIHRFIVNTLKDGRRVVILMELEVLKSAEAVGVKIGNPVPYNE
Sequence of RPA1 DBD-AB DBD-AB (P27694 181-422): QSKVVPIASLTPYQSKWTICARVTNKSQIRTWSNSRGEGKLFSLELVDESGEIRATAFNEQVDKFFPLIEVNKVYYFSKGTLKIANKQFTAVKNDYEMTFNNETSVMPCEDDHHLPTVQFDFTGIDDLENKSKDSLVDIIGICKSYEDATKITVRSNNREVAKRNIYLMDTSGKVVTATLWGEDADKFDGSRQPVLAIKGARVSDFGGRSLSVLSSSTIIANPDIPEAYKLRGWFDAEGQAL

In the case of “RPA1 DBD-AB DBD-AB (from UniProt P27694)”, the Kd [1] is listed as 12000 nM.
For RPA1 DBD-F DBD-F (from UniProt P27694), the Kd [2] is given as 7400 nM.
TTTTTTTTTTTT [dT12] gave a Kd [3] of 60.5 nM.
In the case of TTTTTTTTTTTTTTTTTTTT [dT20], the Kd ([4]; 17.2 nM in peer review file) is reported as 17 nM.
Work on TTTTTTTTTTTTTTTTTTTTTTTTTTTTTTTT [dT32] yielded a Kd [4] of 13.2 nM and a Kd ([4]; second measurement, with S105T / length series) of 15.5 nM.
